For this experiment, the target named is VEGF (human) (UniProt P15692). The experiment in a line: VEGF blocking assay (luminescence).

From US20240279324A1 come the findings set out here.

pIC50: −log10 of the molar value.

Sequence of VEGF (human) (P15692 other isoform, or with tags, fused parts or gaps): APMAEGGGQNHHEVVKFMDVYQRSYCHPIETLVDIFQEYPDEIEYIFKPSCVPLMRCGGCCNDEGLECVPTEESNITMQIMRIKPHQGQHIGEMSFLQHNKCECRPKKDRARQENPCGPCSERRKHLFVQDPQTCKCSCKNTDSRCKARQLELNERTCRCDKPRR

In the case of Avastin, the pIC50 is 9.97.
